Among the data in patent US20240392262A1, “TRANSPOSASE AND USES THEREOF” (Poseida Therapeutics, Inc., published 2024) are activity values, retold here.

For one data set, the target named is T1, PAH6 Right TAL-PBx (synthetic construct).
T1 chain: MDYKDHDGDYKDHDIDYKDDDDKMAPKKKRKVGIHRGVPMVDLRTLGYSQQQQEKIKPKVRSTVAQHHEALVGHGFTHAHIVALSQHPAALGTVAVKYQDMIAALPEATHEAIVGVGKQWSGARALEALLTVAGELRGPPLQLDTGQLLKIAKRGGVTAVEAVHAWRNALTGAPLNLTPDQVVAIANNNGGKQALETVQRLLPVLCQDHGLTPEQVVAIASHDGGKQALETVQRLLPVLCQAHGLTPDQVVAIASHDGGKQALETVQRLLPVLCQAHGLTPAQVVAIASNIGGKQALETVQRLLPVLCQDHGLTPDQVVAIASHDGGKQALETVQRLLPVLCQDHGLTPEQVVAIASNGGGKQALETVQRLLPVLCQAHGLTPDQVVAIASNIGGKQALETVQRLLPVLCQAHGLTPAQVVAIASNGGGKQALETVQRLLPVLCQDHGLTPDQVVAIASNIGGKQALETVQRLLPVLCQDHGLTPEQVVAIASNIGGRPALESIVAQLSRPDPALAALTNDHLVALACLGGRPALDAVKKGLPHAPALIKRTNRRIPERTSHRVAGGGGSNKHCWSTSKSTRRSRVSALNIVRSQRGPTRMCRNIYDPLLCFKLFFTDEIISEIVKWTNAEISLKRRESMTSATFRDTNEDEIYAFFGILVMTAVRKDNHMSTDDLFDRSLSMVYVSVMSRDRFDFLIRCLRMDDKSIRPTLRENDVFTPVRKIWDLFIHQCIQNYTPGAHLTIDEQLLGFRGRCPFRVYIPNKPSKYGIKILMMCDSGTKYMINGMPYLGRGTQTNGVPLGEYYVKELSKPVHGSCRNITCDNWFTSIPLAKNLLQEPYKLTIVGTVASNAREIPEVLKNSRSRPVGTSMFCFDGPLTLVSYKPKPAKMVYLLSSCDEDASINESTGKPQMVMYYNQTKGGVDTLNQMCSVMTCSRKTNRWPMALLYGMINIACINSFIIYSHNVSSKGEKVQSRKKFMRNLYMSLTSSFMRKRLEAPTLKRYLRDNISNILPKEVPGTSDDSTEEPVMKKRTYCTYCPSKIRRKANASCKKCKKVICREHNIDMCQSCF
The data set can be described thus: cell_activity; right only. To be noted: tags: 3xFlag, SV40 NLS.

The target in another data set is T2, PAH6 Left TAL-PBx (synthetic construct).
T2 chain: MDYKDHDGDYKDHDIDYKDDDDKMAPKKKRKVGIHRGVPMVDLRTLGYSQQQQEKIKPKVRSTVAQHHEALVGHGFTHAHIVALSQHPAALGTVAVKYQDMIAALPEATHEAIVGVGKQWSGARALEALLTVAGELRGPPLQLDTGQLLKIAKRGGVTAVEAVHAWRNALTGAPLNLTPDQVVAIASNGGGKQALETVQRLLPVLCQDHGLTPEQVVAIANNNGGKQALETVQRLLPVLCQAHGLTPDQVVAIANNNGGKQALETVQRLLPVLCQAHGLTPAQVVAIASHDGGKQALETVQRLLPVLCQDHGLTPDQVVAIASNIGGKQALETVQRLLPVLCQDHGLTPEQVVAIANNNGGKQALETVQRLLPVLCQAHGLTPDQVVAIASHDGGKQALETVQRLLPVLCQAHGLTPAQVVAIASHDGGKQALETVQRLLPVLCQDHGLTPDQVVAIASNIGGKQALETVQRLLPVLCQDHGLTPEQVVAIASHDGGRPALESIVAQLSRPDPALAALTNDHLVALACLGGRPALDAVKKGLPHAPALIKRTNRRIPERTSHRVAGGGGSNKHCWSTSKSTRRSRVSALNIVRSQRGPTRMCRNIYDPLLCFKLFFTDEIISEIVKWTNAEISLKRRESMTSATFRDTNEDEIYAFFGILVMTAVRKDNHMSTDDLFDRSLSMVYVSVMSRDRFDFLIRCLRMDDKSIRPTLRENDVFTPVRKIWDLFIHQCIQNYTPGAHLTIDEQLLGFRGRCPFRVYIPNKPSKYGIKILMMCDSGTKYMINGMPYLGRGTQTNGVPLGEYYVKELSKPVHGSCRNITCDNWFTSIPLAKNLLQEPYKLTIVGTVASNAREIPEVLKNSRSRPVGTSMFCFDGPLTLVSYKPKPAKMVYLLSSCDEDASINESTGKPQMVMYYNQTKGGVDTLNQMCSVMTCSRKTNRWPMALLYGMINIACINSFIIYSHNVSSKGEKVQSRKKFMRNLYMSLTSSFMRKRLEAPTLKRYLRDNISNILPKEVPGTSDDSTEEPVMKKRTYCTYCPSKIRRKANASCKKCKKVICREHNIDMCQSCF
The data set can be described thus: cell_activity; left only. To be noted: tags: 3xFlag, SV40 NLS.

B1: PAH6 target (dsDNA)
DNA 1: TTGGCAGCCACTGTCCTAAATATTTTAACCAAATCAAAATCTTATAGTGGCA
DNA 2: TGCCACTATAAGATTTTGATTTGGTTAAAATATTTAGGACAGTGGCTGCCAA
Regarding B1, the results for the activity in the data set with PAH6 Right TAL-PBx and with PAH6 Left TAL-PBx were 2.5 % GFP+ and 2.7 % GFP+, respectively.
